Measured values from the nanobody polyreactivity screen of Harvey et al. (2022).

Assay: yeast display, Sf9 membrane polyspecificity reagent, FACS + sequencing; frameworks hold sequencing errors
Summary of the method: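 Synthetic nanobody libraries on Saccharomyces cerevisiae BJ5465 were galactose-induced for 36–48 hours, stained 1 hour at 4 °C with 10% biotinylated, detergent-solubilized Sf9 membrane reagent and enriched on streptavidin microbeads. FACS then separated cells into low and high (top ~1%) gates by anti-HA (expression) and streptavidin (reagent binding) fluorescence. Genes were colony-PCR amplified, MiSeq 2 × 250 sequenced and CDR-length filtered. A clone's polyreactivity label is that of its gate of origin.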

Sequence	polyreactivity (PSR sort gate)
QVQLVESGGGLVHAGGSLRLSCAASGRIFVRNDMGCYRQAPGKERELVAAISWDGGSTYYADSVKGRFTISRDNAKNTVYLQMNSLKPEDTAVYYCATDATRPWYDYWGQGTQVTVSS	low polyreactivity
QVQLVESGGGLVQAGGSLRLSCAASGFISRAYAMGWYRQAPGKERELVAAISVRVGSTYYADSVKGRFTISRDNAKNTVYLQMNSLKPEDTAVYYCAALRPWPRYDYWGQGTQVTVSS	high polyreactivity
QVQLVESGGGLVQAGGSLRLSCAASGRTFDYYVMGWYRQAPGKERELVAAISRRGGSTYYADSVKGRFTISRDNAKNTVYLQMNSLKPEDTAVYYCAAQYYYAREDYWGQGTQVTVSS	high polyreactivity
QVQLVESGGGIDQAGGSLRLRCAASGSIFAYYAMGWYRQAPGKERELVAAISWNGGRTYYADSVKGRFTISRDNAKNTVYLQMNSLKPEDTAVYYCNAVRWAIYDYWGQGTQVTLSS	high polyreactivity
QVQLVESGGGLVQAGGSLRLSCAASGSTFAKYAMGWSRQAPGKEREFVAAITASGGRTFYADSVKGRFTISRDNAKNTVYLQMNSLKPEDSAVYYCAADVVPTWYGYNYDYWGQGTQVTVSS	high polyreactivity
QVQLVESGGGLVQAGGSLRLSCAASGIIFDTNAMGWYRPAPGKERELVAAITRSGGGTYYADSVKGRFSISRDNAKNTVYLQMNSLKPDDTAVYYCAARRQRDRYGYWGQGTQLTVSS	high polyreactivity
QVQLVESGGGLVQAGGSLRFSCAASGSTFPYYAMGLYRQAPGKERELVATITKRGGRTYYADSVKGRFTISRDNAKNTVYLQMISLKPEDTAVYYCAARYRFAVTYEYWGQGTQVTVSS	high polyreactivity
QVQLVESGGGLVQAGGSLRLICSASGLISRINAMGWYRQAPGKERELVAAISSGGSTNYADSVKGRFTISRDNAKNTVYLQMNSLKPEDTAVYYCAAEVFRVAWYDYWGQGTQVTVSS	high polyreactivity
QVQLVESGGGLVQAGASLRLSCAASGIIFNVKAMGWYRQAPGKERELVAAITSGANTYYADSVKGRFTISRDNAKNTVYLQMNSLKPEDSAVYYCNKVGSNSVGPGYDYWGHGTQVTVSS	high polyreactivity
QVQLVESGGGLVQAGRSLRLSCAASGRIFGPYTMGWYRQAPGKEREFVAAITRRGGSTYYADSVKGRFTISRDNAKNTGYLQRHSLKPEDTAVYYCAAVGQKRSLGYSWGQGTQVTVSS	low polyreactivity
QVQLVESGGGLVQAGGSLRLSCAASGSILGIKVMGWYRQAPGKERELVAAISRRGGSTYYADSVKGRFTISRDNAKNTVYLQMNSLKPEDTAVYYCAATRTARTMGYWGQGTQVTVSS	high polyreactivity
QDQLVESGGGLVQAGGSLRLSCAASGSILAYNAMGWYRQAPGKERQLVAAIRLSGGSTYYADSVKGRFTISRDNAKNTVYLQMNSLKPEDTAVYYCARRYYRYDTRKYNYWGQGTQVSVSS	high polyreactivity
QVQLVESGGGLVQAGGSLRLSCAASGIIFGRYAMGWYTPAPGKERELVATISYRGGRTYYADSVKGRFTISRDNAKNTVYLQMNSLKPEDTAVYYCAAPHFSYSGGTHDYWGQGTQVTVSS	high polyreactivity
QVQLVESGGGLVQAGGSLRLSCAASGFTLYPYGMGWYRQAAGKERELVASISSRVGRTYYADSVKGRFTISRDNAKNTVYLQMNSLKPEDTAVYYCAASRLVRYQSRYASWGQGTQVTVSS	high polyreactivity
QVQLVESGGGLVQAGGSLRLSCAASGRIFVNNAKGWYRPAPGKERELVAAISRGASTYYADSVKGRFTISRDNAKNTVYLQLNSLKAEDTAVYYGNARTDAYGASEMGYWGQGTQVTVSS	high polyreactivity
QVQLVESGGGIVQAGGSLRLSCAASGGTFSRNAMGWYRQAPGKERELVAAINSSGVSTSYADSVKGRFTISRDNEKNTVYLQMNSLKPEDTAVYYCAAETSSAEVDYWGQGTQVTVSS	low polyreactivity

Sequence	polyreactivity (PSR sort gate)
QVQLVESGGGLVQEGGSLRLSCAASGFIFDGNAMGWYRQAPGKERELVAAMSWDGGTYYADSVKGRFTISRDNAKNTVYLQMNSLKPEDTAVYYCAAEQTQLYSFGWDEYWGQGTQVTVSS	low polyreactivity
QVQLQESGGGQVHAGGSLRLSCAASGTIFLYAYMGWYRQAPGKERELVAAIDVGTTTNYADSVKGRFTISRDNAKNTVYLQMNSLKPEDTAVYYCAANLGYLDDLGYWGQGTQETVSS	low polyreactivity
QVQLVESGVGLVQAGGSLRLSCAASGRTFSTNAMGWYIQAPGKERELVAAITSRGGSTYYADSVKGRFTISRDNAKNTVYLQMNSLKPEDTAVYYCAVDPLYSKTHYVTLGYYYWGQGTQVTVSS	low polyreactivity
QVQLVESGGGLVQAGGSLRLSCAASGRTFRYYTMGWYRQAPGKERELVAAINDSGDITYYADSVKGRFTISRDNAKNTVSLQMNSLKPEDTAVYYCAASAAYYGFYKSVTYDYWGQGTQVTVSS	low polyreactivity
QVHLVESGGGLVQAGGSLRLSGAASGFTFYRYAMGWSRQAPGKERELVAAITSGAITYYADSVKGRFTISRDNAKNTVYLQMNSLKPEETAVYYCNAVYRVAAIVRYDYWGQGTQVTVSS	high polyreactivity
QVQLVESGGGLVQAGGSLRLSCAASGSTFVVNAMGWYRQAPGKERELVAAITQDGDGTYYADSVKGRFTISRDNAKNTVYLQMNSLKPEDTAVYYCAAYPFYGPYDEFDYWGQGTQVTVSS	low polyreactivity
QVQLVDSGGGLVQAGGSLRISCAASGRTFYWYAMGWSRQAPGKEREFVAAISWNVGSTYYADSVKGRFTISRDHAKNTVYLQMNSLKPEDTAVYYCAAELGYPYSTYADWYYYWGQGTQVTVSS	high polyreactivity
QVQLVESGGGLVQAGGSLRLSCAASGLIFRRYVLGWYRQAPGKEWELVAAISATGSRTYYADSVKGRFTISRDNAKNTVYLQRNSLKPEDNAVYYCAAYRGPRIYRYDYWGQVTQVTVSS	high polyreactivity
QVQLVESGGGLVQAGGSLRLSCAASGSTFAAYVMGWYRQAPGKEWELVAAITSGGSTYYADSVKGRFTISRDNAKNTVYLQMNSLKPEDTAVYYCAASWIRYRWRYGYWGQGTQVTVSS	high polyreactivity
QVQLVESGGGLVQAGGSLRLSCAASGSTFAVNAMGWYRQAPGKERELVAAISGSGGRTYYADSVKGRFTISRDNAKNTVYLQMNSLKPEDTAVYYCATELRASYRSSGAYHYDYWGQGTQVTVSS	low polyreactivity
QVQLVESGGGLVQAGGSLRLSCAASGSTFWYYAMGWYRQAPGKERELVAAITSGDSTYYADSVKGRFTISRDNAKNTVYLQMNSLKPEDTAVYYCAADLPWEDGYYFYSGYTEYDYWGQGTQVTVSS	low polyreactivity
QVQLVESGGGLVQAGGSLRLSCGASGRTFYSYAMGWYRQEHGKERELVATITNGDTTNYADSVKGRFTISRDNAKNTVYLQMNSLKQEDTAVYYCAKDISPGYDEYDYWGQGTQVTVSS	low polyreactivity
QVQLVESGGGLVQAGGSLRLSCAASGSIFSFYAMGWYRQAPGKERELVAAIRYSRGSTYYADSVKGRFTISRDNAKNTVYLQMNSLKPEDTAVYFCAARGGSRRFQSQAYSLPRYDYWGQGTQVTVSS	high polyreactivity
QVQLVESGGGLVQAGGSLRLSFAASGSIFYYYAMGWYRQAPGKERELVAAINYSGGSTYADSVKGRFTISLDNAKNTVYLQMNSLKPEDTAVYYCATRLYGYWPYGFEYWGQGTQVTVSS	low polyreactivity
QVQLVESGGGLVQAGGSLRLSCAASGRTFPVNAMGWYRQAPGKERELVAAITTNGGRTYYADSVKGRFTISRDNAKNTVYLQMNSLKPEDTAVYYCATRAYNDKRYGYWGQGTQVTVSS	high polyreactivity
QVQLVESGGGLVQAGGSLRLSCAASGFISVRNAMGWYRQAPGKEREFVAAISGGGGSTYYADSVKGRFTISRDNAKNTVYLQMNSLKPEDTAVYYCNAPRYLYSAGRFNYWGQGTQVTVSS	high polyreactivity
